The nanobody polyreactivity screen of Harvey et al. (2022)

Assay: yeast display, Sf9 membrane polyspecificity reagent, FACS + sequencing; frameworks hold sequencing errors
Summary of the method: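 Using colony PCR, genes from sorted yeast display clones were amplified, then sequenced on MiSeq at 2 × 250 and filtered by CDR length. The clones had been stained with 10% biotinylated, detergent-solubilized Sf9 membrane reagent for 1 hour at 4 °C and sorted by FACS into low and high (top ~1%) gates on anti-HA and streptavidin fluorescence. Polyreactivity labels come from the gate of origin.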

Sequence	polyreactivity (PSR sort gate)
QVQLVESGGGLVQAGGSLRLSCAASGSTYFRNAMGWYRQAPGKERELVADISASGGSTYYADSVKGRFTISRDNAKNTVYLQMNSLKPEDTAVYYCNALYIYFYNYLTIVYWGQGTQVTVSS	low polyreactivity
QVQLVESGGGLVQAGGSLRLSCAASGSTYGIYAMGWYRQAPGKERELVAAISSGGSTNYADSVKGRFTISRDNAKNTVYLQMNSLKPEDTAVYYCAVESVYEYGGYVDSAYDYWGQGTQVTVSS	low polyreactivity
QVQLVESGGGLVQAGGSLRLSCAASGSTYPYPYTMGWSRQAPGKERELVAVISRTGGSTFYADSVKGRFTISRDNAKNTVHLQMNSLKPEDTAVYYCAARRDGWTFWKYDYWGQGTQVTVSS	high polyreactivity
QVQLVESGGGLVQAGGSLRLSCAASGSYAKGWYRQAPGKERELVAYINGRDGSTYYADSVKGRFTISRDNAKNTVYLQMNSLIPEDTAVYYCNADYVLQYNYWGQGTQVTVSS	low polyreactivity
QVQLVESGGGLVQAGGSLRLSCAASGTFGVYAMGWYRQSPGKERELVAVITDSGGTNYADSVKGRFTISRDNAKNTVYLQMNSLKPEDTAVYYCNTDAGDYYGENYWGQGTQVTVSS	low polyreactivity
QVQLVESGGGLVQAGGSLRLSCAASGTFKWYAMGWYRQAPGKERELVAVISSSGGTTYYADSVKGRFTISRDTAKITVYLQMNSLKPEDTAFYYCNAAKLFRYDYWGQGTQVTVSS	high polyreactivity
QVQLVESGGGLVQAGGSLRLSCAASGTFTSNAMGWYRQAPGKERELVAVITGGGRTNYADSVKGRFTISRDNAKNTVYLQMNSLKPEDTAVYYCAAEVYLPYYERYDYWGQGTQVTVSS	low polyreactivity
QVQLVESGGGLVQAGGSLRLSCAASGTFVTYMGWSRQAPGKERELVAAIRNGGSTNNADTVKGRFTISRDNAKNTVYLQMNSLIPEDTAVYYCAPRFTYSRGYRGGSRTKYDYWGQGTQVTVSS	low polyreactivity
QVQLVESGGGLVQAGGSLRLSCAASGTFVYYAMGWYRQAPGKERELVAVISLNGGITYYADSVKGRFTISRDNAKNTVYLQMNSLKPEDTAVYYCNAQFYNSGWSFKYYYWGQGTQVTVSS	low polyreactivity
QVQLVESGGGLVQAGGSLRLSCAASGTFYKYAMGWYRQAPGKERELVAAISWRGGRTYADSVKGRFTISRDNAKNTVYLQMNSLKPEDTAVYYCNKRFYPEHYYWGQGTQVTVSS	high polyreactivity
QVQLVESGGGLVQAGGSLRLSCAASGTFYPNAMGWYRQAPGKERELVAAISEDGGGTYYADSVKGRFTISRDNAKNTVYLQMNSLKPEDTAVYYCAAEYYDYWYTYDYWGQGTQVTVSS	high polyreactivity
QVQLVESGGGLVQAGGSLRLSCAASGTIFDAYAMGWYRQAPGKERELVAAISLDDGSTYYADSVKGRFTISRDNAKNTVYLQMNSLKPEDTAVYYCAADYYVRSQHLYATSGNYWGQGTQVTVSS	high polyreactivity
QVQLVESGGGLVQAGGSLRLSCAASGTIFPGYTIGWYRQAPGKEREFVAAISRRGGSTYYADSVKGRFTISRDNAKNTVYLQMNSLKPEDTAVYYCPKVPDYRFEYWGQGTLVTVSS	high polyreactivity
QVQLVESGGGLVQAGGSLRLSCAASGTIFRLYTMGWYSQAPGKERELVAAITGSGDSTYYADSVKGRFTISRDNAKNTVYLQMNSLKPEDTAFYYFAAKLSRVKYGYWGQGTQVTVSS	high polyreactivity
QVQLVESGGGLVQAGGSLRLSCAASGTIFRVYAMGRYRQAPGTERELVAAISSSGGSTYYADSVKGRFTISRDNAKTTVYLQMNSLKPEDTAVYYCAAEYDGPYTWVDYYYHYGYWGQGTQVTVSS	low polyreactivity
QVQLVESGGGLVQAGGSLRLSCAASGTIFTTYAIGWYRQEPGKERELVSAISGRGSDTYYADSVKGRFTISRDNAMNTVYLQMNSLKPEDTAVYYCNARRSRAYHGRSFEYWGQGTQVTLSS	low polyreactivity

Sequence	polyreactivity (PSR sort gate)
QVQLVESGGGLVQAGGSLRLSCAASGTIFVPYAMGWYRQAPGKERELVAVITSGGSTYYADSVKGRFTISRDNAKNTVYLQMNSLNPEDTAVYYCIADLYYVWSTLSQFDYWGQGTHVTVSS	low polyreactivity
QVQLVESGGGLVQAGGSLRLSCAASGTIFYDNDMGWYRQAPGKERELVAAISWSASDTYYADSVKGRFTISRDNAKNTVYLHINILKPEDTAVYYCNAEVYVWYFVYSALDYWGLGTQVTVSS	low polyreactivity
QVQLVESGGGLVQAGGSLRLSCAASGTIFYVYAMGWYRQAPGKERELVDAINTSGGSTFYADSVKGRFTISRDNAKNTVYLHMKSLKPEDTAVYYCAAERYRYRSTDTMGYWGQGSQVTVSS	low polyreactivity
QVQLVESGGGLVQAGGSLRLSCAASGTIIVWNAMGRYRQARGKERELVASITSGASTNYADSVKGRFTISRDNAKNTVYLQMNSLKPEDTAVYYCNAGPRRTISRSRLRSAPKYDYWGQGTQVTVSS	low polyreactivity
QVQLVESGGGLVQAGGSLRLSCAASGTIIYLNAMAWYRQAPGKERELVAAITSGGSTYYADSVKGRFTISRDNAKNTVYVQMNSLKPEDTAVYYCAAFVWSGWGHWFYFWGQGTQVTVSS	high polyreactivity
QVQLVESGGGLVQAGGSLRLSCAASGTISAYAMGWYRQAPGKERELVAAITRTGGSTYYADSVKGRFTISRDNAKNTVYLQMNSLKPEDTAVYYCATEFRYREFYYWGQGTQVTVSS	high polyreactivity
QVQLVESGGGLVQAGGSLRLSCAASGTIVGYAMGWYRQAPGKERELVASNSWRVGSTYYADSVKGRFTISRDNAKNTVYLQMISLKPEDTAVYYCNAASYVFLYYPGGIYRDDYWGQGTQVTVSS	low polyreactivity
QVQLVESGGGLVQAGGSLRLSCAASGTLSSYAMGWYRQAAGKERELVAALSLSGGSTYADSVKGRFTISRDNAYNTVYLQMNSLKPEDTAVYYCAKDWDVDITWSFSIYNYWGQGTQVTVSS	low polyreactivity
QVQLVESGGGLVQAGGSLRLSCAASGTLSSYAMGWYRQAPGKERELVAAISLSGGSTYYADSVKGRFTISRDNAKNTVYLQMNSLKPEDTAVYYCAKRPKRTYYPHIGYDYWGQGTQVTVSS	low polyreactivity
QVQLVESGGGLVQAGGSLRLSCAASGTTFAKNAMGWYRQAPGKERELVAAISWSGGSTYYADSVKGRFTISRDNAKNSVYLQMNSLKPVDTAVYYCAADSPRYGGYGYWGQGTQVTVSS	low polyreactivity
QVQLVESGGGLVQAGGSLRLSCAASGTTISAYDMGRYRQAPGKEREMVAAITWIGGNTYYADSVKGRFTISRDNAKNTVYLQMNSLKPEDTAVYYCAAEEVPYDRDMDYWGQGTKVTVSS	low polyreactivity
QVQLVESGGGLVQAGGSLRLSCAASGTTIYTNAKGWYRQAPGKEREFVAAISWSGSSTYADSVKGRFTISRDNAKNTFYLQMNSLKPEDTAVYYCAADWFKQRTDYYWGQGTQVTVSS	low polyreactivity
QVQLVESGGGLVQAGGSLRLSCAASGTYRLYAMGWYRQAPGKEREFVAAITYGGGGTYYADSVKGRFTISRDNAKNTVYLQMNSLKPEDTAVYYCAADLYLTDTDVEYYYWGQGTKVTVSS	low polyreactivity
QVQLVESGGGLVQAGGSLRLSCAASGTYYLYAMGWYRQAPRKERELVAAISGSGSTNYADSVKGRFTISRDNAKNTVYLQMNSLKPEDTAVYYCAAYQRYVSVTGARYEYDYWGQGTQVTVSS	low polyreactivity
QVQLVESGGGLVQAGGSLRLSCAASGVIFFSYAMGWYRQAPGKERELVASISRSGGTTYYADSVKGRFTISRDNGKNTVYLQMNSLKPEDTAVYYCAARTYSYYSRDYCGQGTQVTVSS	high polyreactivity
QVQLVESGGGLVQAGGSLRLSCAASGVIFTFYAMGWYRQAPGKEREFVASIDWGDGSTYYADSVKGRFTISRDNAKNTVYLQMNSLKPEDTAVYYCAHDSDGYVCDTEYDYWGQGTQVTVSS	low polyreactivity
